Measured values taken from article PMC5065780.

Target: VP35 IID (interferon inhibitory domain) (Ebola virus, UniProt X5GXU1 215-340)
Experiment: EMSA

B1: 10 bp dsRNA probe (dsRNA)
RNA 1: CACUGCGACC
RNA 2: GGUCGCAGUG
- binding result: binds
